Test [1] deals with T1, urokinase (UK) (Homo sapiens, UniProt P00749). Particulars: from Turpeinen et al. (PSTI), Christensen et al. (PAI-2); serpin Ki not functionally comparable to reversible inhibitors; read-out: Ki (nM) against UK, values obtained from the literature; cited from earlier work.
Test [2] addresses T1, urokinase (UK). Put plainly: Ki of inhibitors against urokinase, fractional enzyme activity assay (Empie and Laskowski) with chromogenic substrate S-2288. Format: biochemical. Further details: purchased Abbott Pharmaceuticals. On the procedure:
Fractional enzyme activities for each inhibitor-UK interaction of the above discussed inhibitors were determined by the assay method of Empie and Laskowski (Empie, M. W. et al., Biochem. 21:2274-2284 (1982)), as adapted from Green and Work (Green, N. M. et al., Biochem. J. 54:347-352 (1953)). The concentration of UK used for these reactions was 35 nM. The reactions were carried out in Buffer C. The concentration of the chromogenic substrate used with UK in these assays (S-2288, KabiGen) was […], which is one tenth of the Km of the substrate for UK. Km was determined by a Michaelis-Menten analysis, using a 100-fold range of substrate concentration in Buffer C, and determined to be 4×10^-4 M. Ki values were calculated as the slope of a plot of [I]o /(1-a) vs. 1/a ("a" represents residual enzyme activity) using a variation of the formulas derived by Henderson (Pratt, C. W. et al., Biochem. 26:2855-2863 (1987)). […] These five mutants include the four detailed above(88, 89, 80, AND 91), and also a mutant with arginine at the P1 site of OM3TKY (P1-Arg). […] "ND" means not determined.
Ki values for the wild-type and mutant inhibitors versus urokinase were also determined by non-linear regression of the following equation: [formula]
The non-linear regression was done using the program Enzfitter, by Robin Leatherbarrow. […] Enzyme and inhibitor concentrations used were determined as mentioned above.

Where two headings read alike, the source gives them in different places. Where no end group is shown, it is not given here.

On to “PSTI: native Pancreatic Secretory Trypsin Inhibitor, a Kazal-type inhibitor from humans (DSLGREAKCYNELNGCTKIYDPVCGTDGNTYPNECVLCFENRKRQTSILIQKSGPC; ends and bridges not checked; cysteine pairing not given here; UniProt P00995 24-79, looked up) [reference compound]”, for which, in test [1], the Ki – broadly, the equilibrium dissociation constant of an inhibitor or competing ligand from its target – was 300 nM.

As to “P1-Arg: mutant with arginine at the P1 site of OM3TKY (VDCSEYPKPACTREYRPLCGSDNKTYGNKCNFCNAVVESNGTLTLSHFGKC)”, in test [2] (non-linear regression with Enzfitter, read-out: Ki (nM), Ki VALUES OBTAINED BY NON-LINEAR REGRESSION FOR INHIBITORS AGAINST UK), the Ki turned out to be 1790 ± 415 nM. In test [2] (statement on Table 5), the “inhibitory activity against UK” value is “virtually no inhibitory activity”.

Values taken from patent US5550213A, “Inhibitors of urokinase plasminogen activator” (Rutgers, The State University of New Jersey, priority 1993, dated 1996).
